From patent publication US20220073617A1 (Five Prime, published 2022)

B1: P1-064472 (41F11_VH_F27E) (antibody, V domains shown)
VH: QVQLVESGGGLVKPGGSLRLSCAASGETFSDYYMSWIRQAPGKGLEWVSYISNSGSPIYYADSVKGRFTISRDNAKNSLYLQMNSLRAEDTAVYYCARDLPGWYFDLWGRGTLVTVSS
VL: EIVLTQSPATLSLSPGERATLSCRASQSVSSYLAWYQQKPGQAPRLLIYDASNRATGIPARFSASGSGTDFTLTISSLEPEDFAVYYCQQRNNWPRTFGQGTKVEIK
notes: Kabat positions; also called P1-064472-1
B2: P1-064494 (41F11_Vk_A25EA64G) (antibody, V domains shown)
VH: QVQLVESGGGLVKPGGSLRLSCAASGFTFSDYYMSWIRQAPGKGLEWVSYISNSGSPIYYADSVKGRFTISRDNAKNSLYLQMNSLRAEDTAVYYCARDLPGWYFDLWGRGTLVTVSS
VL: EIVLTQSPATLSLSPGERATLSCRESQSVSSYLAWYQQKPGQAPRLLIYDASNRATGIPARFSGSGSGTDFTLTISSLEPEDFAVYYCQQRNNWPRTFGQGTKVEIK
notes: also called P1-064494-1
B3: P1-064502 (41F11_Vk_R96YA64G) (antibody, V domains shown)
VH: QVQLVESGGGLVKPGGSLRLSCAASGFTFSDYYMSWIRQAPGKGLEWVSYISNSGSPIYYADSVKGRFTISRDNAKNSLYLQMNSLRAEDTAVYYCARDLPGWYFDLWGRGTLVTVSS
VL: EIVLTQSPATLSLSPGERATLSCRASQSVSSYLAWYQQKPGQAPRLLIYDASNRATGIPARFSGSGSGTDFTLTISSLEPEDFAVYYCQQRNNWPYTFGQGTKVEIK
notes: also called P1-064502-1
B4: P1-064484 (41F11_VH_L96E) (antibody, V domains shown)
VH: QVQLVESGGGLVKPGGSLRLSCAASGFTFSDYYMSWIRQAPGKGLEWVSYISNSGSPIYYADSVKGRFTISRDNAKNSLYLQMNSLRAEDTAVYYCARDEPGWYFDLWGRGTLVTVSS
VL: EIVLTQSPATLSLSPGERATLSCRASQSVSSYLAWYQQKPGQAPRLLIYDASNRATGIPARFSASGSGTDFTLTISSLEPEDFAVYYCQQRNNWPRTFGQGTKVEIK
notes: Kabat positions; also called P1-064484-1
B5: P1-064534 (41F11_VH_D31E/S35Y/Y50W/S55E/A60H/Y100E/F100aG) (antibody, V domains shown)
VH: QVQLVESGGGLVKPGGSLRLSCAASGFTFSEYYMYWIRQAPGKGLEWVSWISNSGEPIYYHDSVKGRFTISRDNAKNSLYLQMNSLRAEDTAVYYCARDLPGWEGDLWGRGTLVTVSS
VL: EIVLTQSPATLSLSPGERATLSCRASQSVSSYLAWYQQKPGQAPRLLIYDASNRATGIPARFSASGSGTDFTLTISSLEPEDFAVYYCQQRNNWPRTFGQGTKVEIK
notes: Kabat positions; also called P1-064534-1
B6: P1-064486 (41F11_VH_F100aG) (antibody, V domains shown)
VH: QVQLVESGGGLVKPGGSLRLSCAASGFTFSDYYMSWIRQAPGKGLEWVSYISNSGSPIYYADSVKGRFTISRDNAKNSLYLQMNSLRAEDTAVYYCARDLPGWYGDLWGRGTLVTVSS
VL: EIVLTQSPATLSLSPGERATLSCRASQSVSSYLAWYQQKPGQAPRLLIYDASNRATGIPARFSASGSGTDFTLTISSLEPEDFAVYYCQQRNNWPRTFGQGTKVEIK
notes: Kabat positions; also called P1-064486-1
B7: P1-064526 (41F11_VH_D31E/Y50W/S55E/A60H/Y100E) (antibody, V domains shown)
VH: QVQLVESGGGLVKPGGSLRLSCAASGFTFSEYYMSWIRQAPGKGLEWVSWISNSGEPIYYHDSVKGRFTISRDNAKNSLYLQMNSLRAEDTAVYYCARDLPGWEFDLWGRGTLVTVSS
VL: EIVLTQSPATLSLSPGERATLSCRASQSVSSYLAWYQQKPGQAPRLLIYDASNRATGIPARFSASGSGTDFTLTISSLEPEDFAVYYCQQRNNWPRTFGQGTKVEIK
notes: Kabat positions; also called P1-064526-1
B8: P1-064500 (41F11_Vk_Q90DA64G) (antibody, V domains shown)
VH: QVQLVESGGGLVKPGGSLRLSCAASGFTFSDYYMSWIRQAPGKGLEWVSYISNSGSPIYYADSVKGRFTISRDNAKNSLYLQMNSLRAEDTAVYYCARDLPGWYFDLWGRGTLVTVSS
VL: EIVLTQSPATLSLSPGERATLSCRASQSVSSYLAWYQQKPGQAPRLLIYDASNRATGIPARFSGSGSGTDFTLTISSLEPEDFAVYYCQDRNNWPRTFGQGTKVEIK
notes: also called P1-064500-1
B9: P1-064480 (41F11_VH_A60H) (antibody, V domains shown)
VH: QVQLVESGGGLVKPGGSLRLSCAASGFTFSDYYMSWIRQAPGKGLEWVSYISNSGSPIYYHDSVKGRFTISRDNAKNSLYLQMNSLRAEDTAVYYCARDLPGWYFDLWGRGTLVTVSS
VL: EIVLTQSPATLSLSPGERATLSCRASQSVSSYLAWYQQKPGQAPRLLIYDASNRATGIPARFSASGSGTDFTLTISSLEPEDFAVYYCQQRNNWPRTFGQGTKVEIK
notes: Kabat positions; also called P1-064480-1
B10: P1-064516 (41F11_Vk_V29D/A64G/R91T/R96Y) (antibody, V domains shown)
VH: QVQLVESGGGLVKPGGSLRLSCAASGFTFSDYYMSWIRQAPGKGLEWVSYISNSGSPIYYADSVKGRFTISRDNAKNSLYLQMNSLRAEDTAVYYCARDLPGWYFDLWGRGTLVTVSS
VL: EIVLTQSPATLSLSPGERATLSCRASQSDSSYLAWYQQKPGQAPRLLIYDASNRATGIPARFSGSGSGTDFTLTISSLEPEDFAVYYCQQTNNWPYTFGQGTKVEIK
notes: also called P1-064516-1
B11: P1-064478 (41F11_VH_Y50E) (antibody, V domains shown)
VH: QVQLVESGGGLVKPGGSLRLSCAASGFTFSDYYMSWIRQAPGKGLEWVSEISNSGSPIYYADSVKGRFTISRDNAKNSLYLQMNSLRAEDTAVYYCARDLPGWYFDLWGRGTLVTVSS
VL: EIVLTQSPATLSLSPGERATLSCRASQSVSSYLAWYQQKPGQAPRLLIYDASNRATGIPARFSASGSGTDFTLTISSLEPEDFAVYYCQQRNNWPRTFGQGTKVEIK
notes: Kabat positions; also called P1-064478-1
B12: P1-064528 (41F11_VH_D31E/Y50W/S55E/L96E/Y100E) (antibody, V domains shown)
VH: QVQLVESGGGLVKPGGSLRLSCAASGFTFSEYYMSWIRQAPGKGLEWVSWISNSGEPIYYADSVKGRFTISRDNAKNSLYLQMNSLRAEDTAVYYCARDEPGWEFDLWGRGTLVTVSS
VL: EIVLTQSPATLSLSPGERATLSCRASQSVSSYLAWYQQKPGQAPRLLIYDASNRATGIPARFSASGSGTDFTLTISSLEPEDFAVYYCQQRNNWPRTFGQGTKVEIK
notes: Kabat positions; also called P1-064528-1

Tests used:
[1] = target: T1, monovalent hVISTA-ECD (human VISTA extracellular domain with His tail) (human, UniProt Q9H7M9 33-193); assay: SPR, pH 6.0
T1 construct: analyte flowed over captured antibody; also called huVISTA-His
Method: (§1) Binding of several preparations of each of the '029 progeny clones and of the parent '029 antibodies, formatted as IgG1.3 antibodies, to human VISTA at pH 6.0 and 7.4 was measured by Surface plasmon resonance (SPR). SPR analysis was performed to measure koff and KD binding affinity measurements for VISTA Abs at acidic and neutral pHs using a Biacore® T100 instrument (GE Healthcare). Protein A (ThermoFisher Scientific catalog #21181) was diluted to 20 ug/ml in 10 mM sodium acetate pH 4.5 and immobilized onto flow cells of a CM5 biosensor following the manufacturer's amine coupling protocol (GE Healthcare), targeting 2,000 RU immobilization density of Protein A per flow cell. SPR experiments were conducted at 37° C. using PBST (137 mM sodium chloride, 2.7 mM potassium chloride, 10 mM phosphate buffer, 0.05% Tween® 20) running buffer at pH 7.4 and 6.0. Antibodies were diluted to 25 nM in PBST pH 7.4, and were captured across active biosensor flow cells at 5 ul/min for 60 seconds. […] Two 15 second injections of 10 mM glycine pH 1.5 were used to regenerate the Protein A capture surface between assay cycles. Rate constants ka (kₒₙ) and kd (koff) were derived from reference flow cell and 0 nM blank-subtracted sensorgrams, and were fit to a 1:1 binding model in Biacore® T200 Evaluation Software v.2.0. The affinity constant, KD was calculated as the ratio of rate constants koff/kₒₙ for each VISTA antibody. […]

[2] = target: T1, monovalent hVISTA-ECD (human VISTA …); assay: SPR
Method: as §1

[3] = target: T1, monovalent hVISTA-ECD (human VISTA …); assay: SPR, pH 7.4
Method: as §1

T1 sequence (Q9H7M9 other isoform, or with tags, fused parts or gaps limits assumed): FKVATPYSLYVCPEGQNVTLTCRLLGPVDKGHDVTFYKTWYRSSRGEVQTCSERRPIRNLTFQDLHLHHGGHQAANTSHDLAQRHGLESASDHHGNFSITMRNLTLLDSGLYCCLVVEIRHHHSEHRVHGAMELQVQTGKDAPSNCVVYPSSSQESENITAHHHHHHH

Row | Binder | Kd [1] [nM] | koff [1] [s⁻¹] | kon [1] [M⁻¹ s⁻¹] | KD ratio (pH 7.4/pH 6.0) [2] | Kd [3] [nM] | koff [3] [s⁻¹] | kon [3] [M⁻¹ s⁻¹]
1 | B1 | 18 | 0.0411 | 2.29e+06 | 0.2 | 3.6 | 0.000987 | 274000
2 | B2 | 35.6 | 0.0485 | 1.36e+06 | 0.29 | 10.3 | 0.00207 | 200000
3 | B3 | 81.7 | 0.332 | 4.06e+06 | 0.5 | 40.8 | 0.0123 | 301000
4 | B4 | 7.18 | 0.0153 | 2.13e+06 | 3.64 | 26.1 | 0.00353 | 135000
5 | B5 | 9.05 | 0.00649 | 717000 | 1.79 | 16.2 | 0.000675 | 41700
6 | B6 | 34.3 | 0.105 | 3.07e+06 | 0.45 | 15.3 | 0.00341 | 223000
7 | B7 | 0.245 | 0.00094 | 3.84e+06 | 0.8 | 0.196 | 0.000109 | 555000
8 | B8 | 94.1 | 0.157 | 1.67e+06 | 0.48 | 44.7 | 0.0145 | 325000
9 | B9 | 14.2 | 0.0329 | 2.32e+06 | 0.17 | 2.36 | 0.000755 | 320000
10 | B10 | 7.81 | 0.0178 | 2.28e+06 | 2.45 | 19.1 | 0.00223 | 117000
11 | B11 | 96.5 | 0.0121 | 126000 | 0.07 | 6.89 | 0.000381 | 55400
12 | B12 | 0.167 | 0.000584 | 3.49e+06 | 4.6 | 0.768 | 0.000227 | 296000
